Residue numbers refer to the chain shown, from its start. Values belong to the binder of their own block, whether it stands above or below them.
Tests used:
[1] = target: T1, Hu HER3: CD33-[Human HER3, residues 20-640]-TAG (human, UniProt P21860 20-640); assay: solution equilibrium titration (SET), IgG, ECL read-out
T1 construct: also called hu HER3-Tag; HER3-Tag; not shown: C-terminal TAG (e.g. FLAG TAG)

[2] = target: T2, Cyno HER3: CD33-[Cyno HER3, residues 20-643]-TAG (cynomolgus monkey, UniProt G7PIG5 20-643); assay: as above
T2 construct: also called cy HER3-Tag; not shown: C-terminal TAG (e.g. FLAG TAG)

[3] = target: T3, Mu HER3: CD33-[Murine HER3, residues 20-643]-TAG (mouse, UniProt Q61526 20-643); assay: as above
T3 construct: also called mu HER3-Tag; not shown: C-terminal TAG (e.g. FLAG TAG)

[4] = target: T4, human HER3 endogenously expressed on human cancer cells (SK-Br-3, BT-474, MCF7) (human, UniProt P21860 20-1342); assay: cell-based or functional assay
[5] = target: T4, human HER3 endogenously expressed on …; assay: cell-based or functional assay; remark: listed apart in the source
[6] = target: T4, human HER3 endogenously expressed on …; assay: cell-based or functional assay; remark: listed apart in the source

B1: MOR12514 (antibody, human IgG1, lambda, V domains shown)
VH: QVQLVQSGAEVKKPGASVKVSCKASGYTFTSYDIHWVRQAPGQGLEWMGRIDPYSGNTNYAQKFQGRVTMTRDTSISTAYMELSRLRSEDTAVYYCARGSFYTRDSYFDVWGQGTLVTVSS
VL: DIALTQPASVSGSPGQSITISCTGTSSDVGTYNQVSWYQQHPGKAPKLMIYGVSKRPSGVSNRFSGSKSGNTASLTISGLQAEDEADYYCQVRDMSLFDVFGGGTKLTVLG
notes: Tested as IgG
Kd [1]: 0.97 nM
Kd [2]: 1.4 nM
Kd [3]: 2.4 nM
BT474 pHER3 % inhibition [4]: 70%
BT474 pHER3 IC50 [4]: 707 pM
MCF7 pHER3 % inhibition [4]: 67%
MCF7 pHER3 IC50 [4]: 435 pM
SK-Br-3 pHER3 % inhibition [4]: 77%
SK-Br-3 pHER3 IC50 [4]: 223 pM
MCF7 proliferation % inhibition [5]: 29%
MCF7 proliferation IC50 [5]: 0.317 nM
SK-Br-3 proliferation % inhibition [5]: 36%
SK-Br-3 proliferation IC50 [5]: 0.044 nM

B4: MOR12920 (antibody, human IgG1, lambda, V domains shown)
VH: B1 VH with S31G, D33Y, I34M, R50D, D52E, S55H, N57K, T58P, N59L
VL: B1 VL with K44N, Q91S, V92S, M95L, S96I, L97G, F98H, D99Y
BT474 pHER3 % inhibition [4]: 57%
BT474 pHER3 IC50 [4]: 2020 pM
MCF7 pHER3 % inhibition [4]: 66%
MCF7 pHER3 IC50 [4]: 3070 pM
SK-Br-3 pHER3 % inhibition [4]: 57%
SK-Br-3 pHER3 IC50 [4]: 851 pM
MCF7 proliferation % inhibition [5]: 22%
MCF7 proliferation IC50 [5]: 1.92 nM
SK-Br-3 proliferation % inhibition [5]: 32%
SK-Br-3 proliferation IC50 [5]: 2.91 nM

B5: MOR12516 (antibody, human IgG1, lambda, V domains shown)
VH: B1 VH
VL: DIALTQPASVSGSPGQSITISCTGTSSDVGTYNQVSWYQQHPGKAPKLMIYGVSKRPSGVSNRFSGSKSGNTASLTISGLQAEDEADYYCQSRDTYRPVKVFGGGTKLTVLG
notes: Tested as IgG
Kd [1]: 1.8 nM
Kd [2]: 3.6 nM
Kd [3]: 3.9 nM
BT474 pHER3 % inhibition [4]: 63%
MCF7 pHER3 % inhibition [4]: 62%
MCF7 pHER3 IC50 [4]: 590 pM
SK-Br-3 pHER3 % inhibition [4]: 74%
SK-Br-3 pHER3 IC50 [4]: 1870 pM
MCF7 proliferation % inhibition [5]: 34%
MCF7 proliferation IC50 [5]: 0.492 nM
SK-Br-3 proliferation % inhibition [5]: 34%
SK-Br-3 proliferation IC50 [5]: 2.08 nM

The remaining lines, values ahead:

BT474 pHER3 % inhibition [4]: 58%
BT474 pHER3 IC50 [4]: 702 pM
MCF7 pHER3 % inhibition [4]: 62%
MCF7 pHER3 IC50 [4]: 788 pM
SK-Br-3 pHER3 % inhibition [4]: 64%
SK-Br-3 pHER3 IC50 [4]: 81 pM
MCF7 proliferation % inhibition [5]: 27%
MCF7 proliferation IC50 [5]: 0.467 nM
SK-Br-3 proliferation % inhibition [5]: 36%
SK-Br-3 proliferation IC50 [5]: 0.709 nM
B2: MOR12922 (antibody, human IgG1, lambda, V domains shown)
VH: B1 VH with S31G, D33Y, I34M, R50V, N57W, N59E
VL: B1 VL with Q91S, V92S, M95L, S96I, L97G, F98H, D99Y

BT-474 pAkt % inhibition [6]: 50%
MCF7 pAkt % inhibition [6]: 79%
MCF7 pAkt IC50 [6]: 251 pM
SK-Br-3 pAkt % inhibition [6]: 86%
SK-Br-3 pAkt IC50 [6]: 62 pM
Kd [1]: 0.066 nM
BT474 pHER3 % inhibition [4]: 61%
BT474 pHER3 IC50 [4]: 19 pM
MCF7 pHER3 % inhibition [4]: 80%
MCF7 pHER3 IC50 [4]: 149 pM
SK-Br-3 pHER3 % inhibition [4]: 69%
SK-Br-3 pHER3 IC50 [4]: 90 pM
BT-474 proliferation % inhibition [5]: 31%
BT-474 proliferation IC50 [5]: 0.141 nM
MCF7 proliferation % inhibition [5]: 46%
MCF7 proliferation IC50 [5]: 0.086 nM
SK-Br-3 proliferation % inhibition [5]: 39%
SK-Br-3 proliferation IC50 [5]: 0.074 nM
B3: MOR13655 (antibody, human IgG1, lambda, V domains shown)
VH: B1 VH
VL: B5 VL with Q91S, R93A, D94T, T95Q, Y96K, R97P, P98D, K100T
notes: Tested as IgG

BT-474 pAkt % inhibition [6]: 53%
BT-474 pAkt IC50 [6]: 586 pM
MCF7 pAkt % inhibition [6]: 75%
MCF7 pAkt IC50 [6]: 385 pM
SK-Br-3 pAkt % inhibition [6]: 91%
SK-Br-3 pAkt IC50 [6]: 33 pM
Kd [1]: 0.087 nM
BT474 pHER3 % inhibition [4]: 63%
BT474 pHER3 IC50 [4]: 372 pM
MCF7 pHER3 % inhibition [4]: 75%
MCF7 pHER3 IC50 [4]: 283 pM
SK-Br-3 pHER3 % inhibition [4]: 71%
SK-Br-3 pHER3 IC50 [4]: 142 pM
BT-474 proliferation % inhibition [5]: 30%
BT-474 proliferation IC50 [5]: 0.473 nM
SK-Br-3 proliferation % inhibition [5]: 39%
SK-Br-3 proliferation IC50 [5]: 0.179 nM
B6: MOR13657 (antibody, human IgG1, lambda, V domains shown)
VH: B1 VH
VL: B1 VL with Q91S, V92A, M95G, S96W, L97S, F98E, D99Y
notes: Tested as IgG
